The numbers were not newly measured in paper PMC8799529, which cites them from elsewhere.

The target of this data set is p38 MAPK (Homo sapiens) (UniProt Q16539).
Chain of UniProt Q16539 (Q16539 2-360): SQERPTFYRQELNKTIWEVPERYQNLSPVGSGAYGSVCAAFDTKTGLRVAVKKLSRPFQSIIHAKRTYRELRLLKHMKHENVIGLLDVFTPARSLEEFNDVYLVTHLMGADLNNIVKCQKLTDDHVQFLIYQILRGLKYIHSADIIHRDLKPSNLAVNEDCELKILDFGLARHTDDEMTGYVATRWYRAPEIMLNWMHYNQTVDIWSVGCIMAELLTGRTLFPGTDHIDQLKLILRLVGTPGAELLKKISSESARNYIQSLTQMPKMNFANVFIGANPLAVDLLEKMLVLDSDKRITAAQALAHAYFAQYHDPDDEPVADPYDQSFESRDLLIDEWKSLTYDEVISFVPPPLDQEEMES

One may read the Kd as the concentration at which binding is half-saturated. MK2 (from UniProt P49137): the Kd is 2.5 nM.
